This is an account of results in paper PMC13589956, “Engineered flavonoid disrupts mitochondrial AIF/CHCHD4 complex for targeted cancer therapy” (Acta Pharmaceutica Sinica. B, 2026).

The target of the assay is T1, HIS-AIF_(103-613) (human, UniProt O95831 103-613).
T1 construct: apoptosis-inducing factor (AIF, encoded by AIFM1), human, residues 103-613; also called apoptosis-inducing factor; source: E. coli BL21+DE3(RIPL), 0.5 mmol/L IPTG 3 h at 37 °C, purified
As to the kind of experiment: AlphaScreen or HTRF; His-AIF_(103-613) (5 μL at 300 nmol/L) and GST-CHCHD4 (5 μL at 100 nmol/L, 2 h) coupled by their tags to donor and acceptor beads (5 μg/mL, 3 h at 23 °C in the dark); 384-well plates, 25 μL, 0.1% BSA/PBS; N27 at 3 μmol/L as positive control of inhibition. As to conditions: both partners purified. (In Alpha technology, singlet oxygen from a donor bead excites a nearby acceptor bead.)

T1 sequence (O95831 103-613): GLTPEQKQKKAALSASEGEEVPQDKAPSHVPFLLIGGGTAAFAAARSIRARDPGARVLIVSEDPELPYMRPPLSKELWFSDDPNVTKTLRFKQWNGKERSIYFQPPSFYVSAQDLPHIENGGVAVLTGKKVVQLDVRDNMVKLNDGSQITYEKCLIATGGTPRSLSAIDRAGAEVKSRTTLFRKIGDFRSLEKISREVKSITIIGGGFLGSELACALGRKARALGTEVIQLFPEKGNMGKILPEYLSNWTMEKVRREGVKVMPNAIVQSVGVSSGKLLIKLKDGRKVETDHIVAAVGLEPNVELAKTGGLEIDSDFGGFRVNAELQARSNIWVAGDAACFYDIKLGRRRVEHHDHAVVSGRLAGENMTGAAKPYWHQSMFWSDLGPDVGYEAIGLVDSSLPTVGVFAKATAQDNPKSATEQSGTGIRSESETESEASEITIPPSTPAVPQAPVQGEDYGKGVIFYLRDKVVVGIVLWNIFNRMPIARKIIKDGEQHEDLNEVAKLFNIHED

B1: GST-CHCHD4 (natural protein, human, UniProt Q8N4Q1 1-142, looked up)
chain: MSYCRQEGKDRIIFVTKEDHETPSSAELVADDPNDPYEEHGLILPNGNINWNCPCLGGMASGPCGEQFKSAFSCFHYSTEEIKGSDCVDQFRAMQECMQKYPDLYPQEDEDEEEEREKKPAEQAEETAPIEATATKEEEGSS
notes: coiled-coil-helix-coiled-coil-helix domain-containing protein 4 (CHCHD4), human; it is printed both as GST-CHCHD4 and as CHCHD4-Gst; also called CHCHD4-Gst; coiled-coil-helix-coiled-coil-helix domain-containing protein 4; source: E. coli BL21+DE3(RIPL), 0.5 mmol/L IPTG 3 h at 37 °C, purified
For B1, the binding result is “binds”.

B2: peptide N27 (peptide, UniProt Q8N4Q1 1-27, looked up)
peptide: MSYCRQEGKDRIIFVTKEDHETPSSAE
notes: synthetic peptide corresponding to the N-terminal 27 amino acids of CHCHD4; source: synthetic peptide
B2: the binding result is given as “binds”.
